Test results reported in publication PMC9864931 (Vaccines, 2022).

Key:
[1] = molecular target: mammalian cell-expressed Wuhan-Hu1 RBD reference standard (SARS-CoV-2 (Wuhan-Hu1), UniProt P0DTC2); experiment: BLI; conditions: both partners purified
[2] = molecular target: E. coli-produced Wuhan-Hu1 RBD (receptor binding domain of the SARS-CoV-2 spike protein, a.a. 319-542) (SARS-CoV-2 (Wuhan-Hu1), UniProt P0DTC2); experiment: BLI; conditions: both partners purified

Row | Binder | binding result [1] | binding result [2]
1 | mAb WRAIR-2125 (antibody, V domains shown) VH: EVQLVESGGGVVQPGRSLRLSCAASGFTFSSYGMHWVRQAPGKGLEWVAVISYDGSNKYYADSVKGRFTISRDNSKNTLSLQMNSLRPEDTAVYYCAKDSPYYYDSSGYYPGYFQDWGQGSLVTVSS VL: DIQMTQSPSSLSASIGDRVTITCRASQTISDYLNWYQQKPGKAPNLLIYAASTLQSGVPSRFSGSGSGTDFTLTISSLQPEDFATYYCQQSYITPRTFGQGTKVEIK | binds | binds
2 | mAb WRAIR-2173 (antibody, V domains shown) VH: QVQLQESGPGLVKPSETLSLTCSVSGDSISSSDYSWGWIRQPPGKGLEWIGTIYYIKNTYYNPSLRSRVTLSVDTSKNLFSLKLSSVTAADTAVYYCARERPPFDVVVVPAARPYNWFDPWGLGTLVIVSS VL: QSVLMQPPSVSGAPGQRVTISCTGSSSNIGAGYDVHWYQQLPGTAPKLLIYGNNNRPSGVPDRFSGSKSGTSASLAITGLQADDEADYYCQSYDSSLSGSKVFGGGTKLTVL |  | binds
